Experiments:
[1] = target: HIV-1 Env of strain X1632_S2_B10 (HIV-1); experiment: cell-based or functional assay
[2] = target: HIV-1 Env of strain 249M B10 (HIV-1); experiment: cell-based or functional assay
[3] = target: HIV-1 Env of strain 6244_13_B5_4576 (HIV-1); experiment: cell-based or functional assay
[4] = target: HIV-1 Env of strain Ce1086_B2 (HIV-1); experiment: cell-based or functional assay
[5] = target: HIV-1 Env of strain MS208.A1 (HIV-1); experiment: cell-based or functional assay
[6] = target: HIV-1 Env of strain 235-47 (HIV-1); experiment: cell-based or functional assay
[7] = target: HIV-1 Env of strain 191955_A11 (HIV-1); experiment: cell-based or functional assay
[8] = target: HIV-1 Env of strain HIV-001428-2.42 (HIV-1); experiment: cell-based or functional assay
[9] = target: HIV-1 Env of strain HIV-16055-2.3 (HIV-1); experiment: cell-based or functional assay
[10] = target: YU2 gp160 point mutant at 458gp120 (HIV-1) (UniProt P35961); experiment: cell-based or functional assay
[11] = target: YU2 gp160 point mutant at 279gp120 (HIV-1) (UniProt P35961)
[12] = target: HIV-1 strain YU2 gp160 (gp120) (HIV-1) (UniProt P35961)
[13] = target: YU2 gp160 point mutant at 458gp120 (HIV-1) (UniProt P35961)
[14] = target: HIV-1 Env of strain Du172.17 (HIV-1); experiment: cell-based or functional assay
[15] = target: Env of HIV-1 strain 246F C1G (HIV-1); experiment: cell-based or functional assay
[16] = target: Env of HIV-1 strain 3103.v3.c10 (HIV-1); experiment: cell-based or functional assay
[17] = target: Env of HIV-1 strain 62357_14_D3_4589 (HIV-1); experiment: cell-based or functional assay
[18] = target: Env of HIV-1 strain 191821_E6_1 (HIV-1); experiment: cell-based or functional assay
[19] = target: Env of HIV-1 strain CAP45.2.00.G3 (HIV-1); experiment: cell-based or functional assay
[20] = target: Env of HIV-1 strain 6545.v4.c1 (HIV-1); experiment: cell-based or functional assay
[21] = target: Env of HIV-1 strain BF1266.431a (HIV-1); experiment: cell-based or functional assay
[22] = target: Env of HIV-1 strain TRJO4551.58 (HIV-1); experiment: cell-based or functional assay
[23] = target: Env of HIV-1 strain 0815.v3.c3 (HIV-1); experiment: cell-based or functional assay
[24] = target: Env of HIV-1 strain T278-50 (HIV-1); experiment: cell-based or functional assay
[25] = target: Env of HIV-1 strain BJOX010000.06.2 (HIV-1); experiment: cell-based or functional assay
[26] = target: Env of HIV-1 strain ZM249M.PL1 (HIV-1); experiment: cell-based or functional assay
[27] = target: Env of HIV-1 strain Q23.17 (HIV-1); experiment: cell-based or functional assay
[28] = target: Env of HIV-1 strain BJOX028000.10.3 (HIV-1); experiment: cell-based or functional assay
[29] = target: Env of HIV-1 strain 3415.v1.c1 (HIV-1); experiment: cell-based or functional assay
[30] = target: Env of HIV-1 strain Ce1172_H1 (HIV-1); experiment: cell-based or functional assay
[31] = target: Env of HIV-1 strain X2088_c9 (HIV-1); experiment: cell-based or functional assay
[32] = target: Env of HIV-1 strain ZM135M.PL10a (HIV-1); experiment: cell-based or functional assay
[33] = target: Env of HIV-1 strain X1632_S2_B10 (HIV-1); experiment: cell-based or functional assay

| Binder | IC50, pseudovirus neutralization [2] | IC50, pseudovirus neutralization [3] | IC50, pseudovirus neutralization [4] | IC50, pseudovirus neutralization [5] | IC50, pseudovirus neutralization [6] | IC50, pseudovirus neutralization [7] | IC50, pseudovirus neutralization [8] | IC50, pseudovirus neutralization [9] | neutralization IC50 [14] | IC80 [15] | IC80 [16] | IC80 [17] | IC80 [18] | IC80 [19] | IC80 [20] | IC80 [21] | IC80 [22] | IC80 [23] | IC80 [24] | IC80 [25] | also measured |
| --- | --- | --- | --- | --- | --- | --- | --- | --- | --- | --- | --- | --- | --- | --- | --- | --- | --- | --- | --- | --- | --- |
| NIH45-46^G54W(HC), S28Y(LC) (antibody, V domains shown) VH: QVRLSQSGGQMKKPGESMRLSCRASGYEFLNCPINWIRLAPGRRPEWMGWLKPRWGAVNYARKFQGRVTMTRDVYSDTAFLELRSLTSDDTAVYFCTRGKYCTARDYYNWDFEHWGRGAPVTVSS VL: EIVLTQSPATLSLSPGETAIISCRTSQYGSLAWYQQRPGQAPRLVIYSGSTRAAGIPDRFSGSRWGADYNLSISNLESGDFGVYYCQQYEFFGQGTKVQVDI | 0.001 µg/mL | 0.03 µg/mL | 0.004 µg/mL | 0.022 µg/mL | 0.001 µg/mL | 0.013 µg/mL | 0.001 µg/mL | 0.002 µg/mL |  |  |  |  |  |  |  |  |  |  |  |  | IC50, pseudovirus neutralization [1]: 0.001 µg/mL |
| NIH45-46^G54W IgG (antibody, name in Kabat numbering, V domains shown) VH: QVRLSQSGGQMKKPGESMRLSCRASGYEFLNCPINWIRLAPGRRPEWMGWLKPRWGAVNYARKFQGRVTMTRDVYSDTAFLELRSLTSDDTAVYFCTRGKYCTARDYYNWDFEHWGRGAPVTVSS VL: EIVLTQSPATLSLSPGETAIISCRTSQSGSLAWYQQRPGQAPRLVIYSGSTRAAGIPDRFSGSRWGADYNLSISNLESGDFGVYYCQQYEFFGQGTKVQVDI |  |  |  |  |  |  |  |  | 0.9 µg/mL |  |  |  |  |  |  |  |  |  |  |  | decrease of neutralization potency against YU2 [10]: > 1500 fold; IC50, pseudovirus neutralization (TZM-bl, luciferase) (N280D (HIV-1)): > 50 µg/mL; IC50, pseudovirus neutralization (TZM-bl, luciferase) (R456W (HIV-1)): 6 µg/mL; IC50, pseudovirus neutralization (TZM-bl, luciferase) [11]: > 50 µg/mL; IC50, pseudovirus neutralization (TZM-bl, luciferase) [12]: 0.008 µg/mL; IC50, pseudovirus neutralization (TZM-bl, luciferase) (G459D (HIV-1)): 0.01 µg/mL; IC50, pseudovirus neutralization (TZM-bl, luciferase) [13]: 18 µg/mL; IC50, pseudovirus neutralization (TZM-bl, luciferase) (N280Y (HIV-1)): > 50 µg/mL |
| NIH45-46^G54F IgG (antibody, name in Kabat numbering, V domains shown) VH: QVRLSQSGGQMKKPGESMRLSCRASGYEFLNCPINWIRLAPGRRPEWMGWLKPRFGAVNYARKFQGRVTMTRDVYSDTAFLELRSLTSDDTAVYFCTRGKYCTARDYYNWDFEHWGRGAPVTVSS VL: EIVLTQSPATLSLSPGETAIISCRTSQSGSLAWYQQRPGQAPRLVIYSGSTRAAGIPDRFSGSRWGADYNLSISNLESGDFGVYYCQQYEFFGQGTKVQVDI |  |  |  |  |  |  |  |  | 16 µg/mL |  |  |  |  |  |  |  |  |  |  |  |  |
| NIH45-46^G54W (antibody, V domains shown) VH: QVRLSQSGGQMKKPGESMRLSCRASGYEFLNCPINWIRLAPGRRPEWMGWLKPRWGAVNYARKFQGRVTMTRDVYSDTAFLELRSLTSDDTAVYFCTRGKYCTARDYYNWDFEHWGRGAPVTVSS VL: EIVLTQSPATLSLSPGETAIISCRTSQSGSLAWYQQRPGQAPRLVIYSGSTRAAGIPDRFSGSRWGADYNLSISNLESGDFGVYYCQQYEFFGQGTKVQVDI | 0.001 µg/mL | 0.005 µg/mL | 0.019 µg/mL | 0.031 µg/mL | 0.001 µg/mL | 0.015 µg/mL | 0.001 µg/mL | 0.001 µg/mL |  | 2.45 µg/mL | 0.56 µg/mL | 0.07 µg/mL | 0.099 µg/mL | > 50 µg/mL | > 50 µg/mL | 0.001 µg/mL | 0.05 µg/mL | 0.003 µg/mL | > 50 µg/mL | 4.5 µg/mL | IC80 [26]: 0.007 µg/mL; IC80 [27]: 0.03 µg/mL; IC80 [28]: 0.002 µg/mL; IC80 [29]: 0.023 µg/mL; IC80 [30]: > 50 µg/mL; IC80 [31]: > 50 µg/mL; IC80 [32]: 0.16 µg/mL |
| NIH45-46^G54W(HC) S28Y(LC) (antibody, V domains shown) VH: QVRLSQSGGQMKKPGESMRLSCRASGYEFLNCPINWIRLAPGRRPEWMGWLKPRWGAVNYARKFQGRVTMTRDVYSDTAFLELRSLTSDDTAVYFCTRGKYCTARDYYNWDFEHWGRGAPVTVSS VL: EIVLTQSPATLSLSPGETAIISCRTSQYGSLAWYQQRPGQAPRLVIYSGSTRAAGIPDRFSGSRWGADYNLSISNLESGDFGVYYCQQYEFFGQGTKVQVDI |  |  |  |  |  |  |  |  |  | 0.14 µg/mL | 0.594 µg/mL | 0.084 µg/mL | 0.13 µg/mL | 0.089 µg/mL | > 50 µg/mL | 0.013 µg/mL | 0.02 µg/mL | 0.004 µg/mL | > 50 µg/mL | 5.04 µg/mL | IC80 [26]: 0.017 µg/mL; IC80 [27]: 0.05 µg/mL; IC80 [28]: 0.006 µg/mL; IC80 [29]: 0.054 µg/mL; IC80 [30]: > 50 µg/mL; IC80 [31]: > 50 µg/mL; IC80 [33]: 0.007 µg/mL; IC80 [32]: 0.163 µg/mL |

From patent US20130209454A1
